Reference: patent US20240109954A1

Biological target: EBOV GP displayed on vesicular stomatitis virus (VSV) pseudovirions (Ebola virus) (UniProt Q05320)
Experiment: cell-based or functional assay

Sequence of EBOV GP displayed on vesicular stomatitis virus (VSV) pseudovirions (Ebola virus) (Q05320 33-676 limits assumed): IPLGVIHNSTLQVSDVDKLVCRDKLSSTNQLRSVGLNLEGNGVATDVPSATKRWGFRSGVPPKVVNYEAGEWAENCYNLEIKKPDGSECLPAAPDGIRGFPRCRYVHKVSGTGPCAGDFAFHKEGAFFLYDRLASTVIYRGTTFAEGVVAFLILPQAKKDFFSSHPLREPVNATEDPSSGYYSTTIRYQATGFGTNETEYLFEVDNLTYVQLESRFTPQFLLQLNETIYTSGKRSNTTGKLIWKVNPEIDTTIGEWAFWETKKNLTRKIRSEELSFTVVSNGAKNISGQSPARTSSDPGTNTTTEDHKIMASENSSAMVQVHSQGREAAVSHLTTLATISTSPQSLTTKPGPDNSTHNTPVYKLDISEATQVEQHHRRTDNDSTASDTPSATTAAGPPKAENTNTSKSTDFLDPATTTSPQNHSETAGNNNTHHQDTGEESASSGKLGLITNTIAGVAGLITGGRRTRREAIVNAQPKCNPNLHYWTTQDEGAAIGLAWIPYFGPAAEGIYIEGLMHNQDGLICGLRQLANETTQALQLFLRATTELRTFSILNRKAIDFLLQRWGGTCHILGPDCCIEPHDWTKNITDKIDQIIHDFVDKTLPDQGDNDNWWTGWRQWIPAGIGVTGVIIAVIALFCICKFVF

## KZ52 (antibody)
  IC50, neutralization of VSV pseudotyped to display EBOV GP: 0.08 µg/mL
